Reference: paper doi:10.1101/169961

Target: Chicken skeletal muscle actin (chicken) (UniProt P68139)
Assay: TIRF microscopy

percent of Fim1 association with F-actin prevented by Cdc8 alone: 50%
Substance: tropomyosin AlaSer-Cdc8, labeled (natural protein)
